Experimental data as given in the supplement of paper PMC7125110.
± gives the standard error. Fewer inactive variants are shown than the library holds.

B1: glmS ribozyme (parent)
chain: AUAAAAGCGCCAGAACUACAGAAAUGUAGUUGACGAGGAGGAGGUUUAUCGAAUUUUCGGCGGAUGCCUCCAAA

Variants of: B1
Assay: self-cleavage kobs at 10000 uM GlcN6P; higher = faster cleavage; RNA array
Settings: with glucosamine-6-phosphate
Summary of the method: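 Sequenced MiSeq chips were the platform: E. coli RNA polymerase transcribed barcoded ribozyme variants on them in situ, and a hybridised Cy3 probe tracked these at 37 °C. After glucosamine-6-phosphate (40 μM to 10 mM) in HEPES/KCl/Mg(OAc)2 buffer was flowed in, tiles were imaged over ~14 h. Signals normalised to baseline and to non-cleaving reference variants were reduced to per-tile medians and fit to one- or two-exponential decays to obtain kobs. kcat and KM were derived through weighted Michaelis–Menten fits across concentrations.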

Row | Variant | self-cleavage kobs at 10000 uM GlcN6P
1 | A48G A52G C71G | < 1e-05 s⁻¹
2 | G9U U31G U45A C61A C68A | < 1e-05 s⁻¹
3 | G66A C68U C71A | 0.000105 ± 1.9e-05 s⁻¹
4 | A39G G44A U57A C61U C70U | < 1e-05 s⁻¹
5 | U31A C61G C71U | < 1e-05 s⁻¹
6 | G38A C61A C71U | < 1e-05 s⁻¹
7 | G32A A39U C68U | 0.000655 ± 0.00014 s⁻¹
8 | A12C C16U A52U | 0.000334 ± 6.5e-05 s⁻¹
9 | C11G G13C G44A | < 1e-05 s⁻¹
10 | G9C G63A C68G | < 1e-05 s⁻¹
11 | G7A A12C G51U | < 1e-05 s⁻¹
12 | G35A A36U G43U | < 1e-05 s⁻¹
13 | A48U C61A C70G | < 1e-05 s⁻¹
14 | G7U G13C G32A | < 1e-05 s⁻¹
15 | G44U U57G G66A C70G | < 1e-05 s⁻¹
16 | A15C C16G U65G | 0.000462 ± 8e-05 s⁻¹
17 | G37U G38A U45G G51A | < 1e-05 s⁻¹
18 | C16G G32U C58U | 0.000423 ± 0.00013 s⁻¹
19 | G13A C34G A52C | < 1e-05 s⁻¹
20 | U31C A48C | 3.72e-05 ± 7.7e-06 s⁻¹
21 | U31C A39C G40U G60U | < 1e-05 s⁻¹

Row | Variant | self-cleavage kobs at 10000 uM GlcN6P
22 | G35C U45G U47A U65C | < 1e-05 s⁻¹
23 | G29A U30C G60A | < 1e-05 s⁻¹
24 | U56A C58A C67G | 7.18e-05 ± 2.4e-05 s⁻¹
25 | A12C A14G U47A A53G C58U | 3.29e-05 ± 1.6e-05 s⁻¹
26 | U31C C58U G63C | < 1e-05 s⁻¹
27 | A14G A33U A39U | 4.23e-05 ± 1.4e-05 s⁻¹
28 | C34A G35A G40U G41C U46G | < 1e-05 s⁻¹
29 | A39G C61A G62U | < 1e-05 s⁻¹
30 | C8A G40C G59A G63A | < 1e-05 s⁻¹
31 | G40C A53U C61A | < 1e-05 s⁻¹
32 | A15U G60U G62C | < 1e-05 s⁻¹
33 | C11A G35C G41C | < 1e-05 s⁻¹
34 | A33C U45C U65C | < 1e-05 s⁻¹
35 | C10U G60U A64U | < 1e-05 s⁻¹
36 | A15U A39U U55A | 0.00299 ± 0.00069 s⁻¹
37 | A14U G37U A48G U49C C71U | < 1e-05 s⁻¹
38 | A14U A52U U54C | 0.000114 ± 1.6e-05 s⁻¹
39 | G13A C71A | 0.000168 ± 3.3e-05 s⁻¹
40 | U57C C58A | 2.32e-05 ± 9.2e-06 s⁻¹
41 | U30G G51U U55C C61A | < 1e-05 s⁻¹
42 | A14U U30C G38C | < 1e-05 s⁻¹

Row | Variant | self-cleavage kobs at 10000 uM GlcN6P
43 | C8G C10G G40U A52C | < 1e-05 s⁻¹
44 | G38U A53U | < 1e-05 s⁻¹
45 | G35U G41U A42C G62C C70A | < 1e-05 s⁻¹
46 | C16A G35C A39U | < 1e-05 s⁻¹
47 | C16A A33C A42C C71U | < 1e-05 s⁻¹
48 | G32U U54C C70A | 4.27e-05 ± 1.5e-05 s⁻¹
49 | A12G C61A | < 1e-05 s⁻¹
50 | A15G G41C U47G C61U U65A | < 1e-05 s⁻¹
51 | G43C U55A G60U | < 1e-05 s⁻¹
52 | U54A G60A | 3.42e-05 ± 1.5e-05 s⁻¹
53 | G37C G41A G51U G62U C67A | < 1e-05 s⁻¹
54 | C16U A39C A53G | 0.00494 ± 0.0011 s⁻¹
55 | C11U A15U A42U | < 1e-05 s⁻¹
56 | G9U C34U A36C G62C | < 1e-05 s⁻¹
57 | G43A G59C C67G | < 1e-05 s⁻¹
58 | G21A A33U | 0.00012 ± 2.2e-05 s⁻¹
59 | A36C U46G U49G | 0.000106 ± 2.7e-05 s⁻¹
60 | A6G U30G C68G | < 1e-05 s⁻¹
61 | G13A A42U U49G C58U | < 1e-05 s⁻¹
62 | C11U C50A G66A | < 1e-05 s⁻¹
63 | G13U A39U A53U C67G | 4.97e-05 ± 1.8e-05 s⁻¹

Row | Variant | self-cleavage kobs at 10000 uM GlcN6P
64 | A53G U56G C71G | 0.00022 ± 5.2e-05 s⁻¹
65 | G9A A15C C67A | < 1e-05 s⁻¹
66 | A15G G35A U57G G62A | < 1e-05 s⁻¹
67 | G37A A52G C67U | 5.39e-05 ± 2.2e-05 s⁻¹
68 | A15G U55G C58A | 0.000435 ± 8.3e-05 s⁻¹
69 | G35U U45G C67G | < 1e-05 s⁻¹
70 | A12C A15U C58G | 0.00016 ± 3.5e-05 s⁻¹
71 | C10A U45A A52U | < 1e-05 s⁻¹
72 | G13A C50G C70G | 9.61e-05 ± 2e-05 s⁻¹
73 | G7A G9C G40U | < 1e-05 s⁻¹
74 | A52G U65G C71G | 2.3e-05 ± 1.1e-05 s⁻¹
75 | C11U G32U U45G C61G | < 1e-05 s⁻¹
76 | U54A A64C | 0.000157 ± 2.8e-05 s⁻¹
77 | G37U A52G A64C C70A | < 1e-05 s⁻¹
78 | G32C U54A C68G | 6.46e-05 ± 2e-05 s⁻¹
79 | C11U G38U A42G | < 1e-05 s⁻¹
80 | C16U U55G C68G | 5.93e-05 ± 1.5e-05 s⁻¹
81 | A12U U30C G32A A52U U65G C70G | < 1e-05 s⁻¹
82 | A14C G32U U65G | 0.000125 ± 3e-05 s⁻¹
83 | U30C G32A G66A | 0.001 ± 0.00026 s⁻¹
84 | C10U G38U G63C C70U | < 1e-05 s⁻¹
